Test results published in PMC6351178.

Target: PitA (E. coli (endogenous in MG1655)) (UniProt P0AFJ7)
Experiment: cross-linking

UniProt P0AFJ7, sequence (P0AFJ7 whole entry): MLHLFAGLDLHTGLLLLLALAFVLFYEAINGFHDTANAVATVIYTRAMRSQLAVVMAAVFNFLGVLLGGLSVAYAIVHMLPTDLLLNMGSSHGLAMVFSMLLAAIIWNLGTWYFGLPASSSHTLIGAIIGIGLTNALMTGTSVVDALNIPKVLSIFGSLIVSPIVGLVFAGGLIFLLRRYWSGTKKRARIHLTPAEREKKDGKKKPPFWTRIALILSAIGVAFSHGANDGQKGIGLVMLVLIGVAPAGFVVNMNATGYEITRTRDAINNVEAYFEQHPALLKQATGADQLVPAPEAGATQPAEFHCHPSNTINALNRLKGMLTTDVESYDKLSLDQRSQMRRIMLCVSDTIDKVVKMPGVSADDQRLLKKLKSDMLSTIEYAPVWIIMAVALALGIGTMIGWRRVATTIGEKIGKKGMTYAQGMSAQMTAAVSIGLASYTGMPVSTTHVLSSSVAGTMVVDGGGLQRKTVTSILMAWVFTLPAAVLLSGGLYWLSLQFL

stoichiometry N (MgtS-SPA per PitA): 1
Substance: MgtS-SPA (from UniProt A5A616 1-31) (natural protein)
